Reference: patent US20240425603A1 (Janssen / Centocor, published 2024)
Several values for one entry are separate records, joined by “and”; a condition that tells them apart may be missing. Identical values can stand only once.

Assays:
[1] = molecular target: T1, Recombinant human VEGFR1-Fc (R&D Systems) (human, UniProt P17948 27-687, limits assumed); assay: MSD ECL competition on plate-bound human VEGFR1-Fc; competitor biotin PlGF (2 nM)
T1 construct: bought; not shown: Fc part of the bought fusion, not described
Method in brief: (§1)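 IC50 and maximal percent inhibition come from electro-chemiluminescence readings of bound ligand, detected with Sulfo-tagged streptavidin on an MSD SECTOR S 600 imager. Receptor (human or mouse VEGFR1-Fc, or His-tagged cyno VEGFR1, 0.5 ug/ml) was captured for 1 hour at room temperature on Protein A/G- or anti-His mAb-coated MSD 384 plates blocked with Blocker A. Half-log antibody dilutions were pre-incubated for 30 minutes before biotinylated VEGFA (0.2 nM) or PlGF (2 nM) was added.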

[2] = molecular target: T2, human VEGFR1, full length, over-expressed on cells (human, UniProt P17948 27-1338); assay: flow cytometry, CHO-K1 cells stably expressing human VEGFR1
T2 construct: on CHO-K1 or HEK cells; also called hVEGFR1; CHOK1/ human VEGFR1
Experimental: Full dose-response curves for binding of anti-VEGFR1 antibodies to VEGFR1 on cells were also generated. Parental CHO-K1 cells and CHO-K1 cells stably expressing human VEGFR1 (CHO-K1\hVEGFR1) were cultured in aMEM+10% FBS and aMEM+10% FBS containing 10 μg/mL Puromycin, respectively. CHOK1\hVEGFR1 were stained with CSFE as described above and parental CHO-K1 cells were left unstained. Cells were washed, combined (˜0.5×10⁶ cells/mL), and plated at ˜40,000 cells per well (75 μL/well). Serially diluted antibody samples were then added to the cells and incubated for 1 hour at 37° C. Cells were washed twice with stain buffer and then stained with AF647-conjugated secondary antibody for 30 min at 4° C. Plated cells were washed twice followed by the addition of read buffer containing Sytox Blue (1:1000) and read on an iQue flow cytometer. Data was fit to obtain EC₅₀ values (Table 22).

[3] = molecular target: T3, cynomolgus monkey VEGFR1, over-expressed on HEK293 cells (cynomolgus monkey); assay: flow cytometry, HEK cells over-expressing cyno VEGFR1; competitor biotinylated VEGF A (500 pM)
T3 construct: whole, on cells; also called HEK/ cyno VEGFR1; cynoVEGFR1

[4] = molecular target: His tagged cyno VEGFR1 (cynomolgus monkey, UniProt A0A2K5VAF2 27-758); assay: MSD ECL competition on plate-bound His-tagged cyno VEGFR1; competitor biotin human PlGF (2 nM)
Method in brief: as §1

[5] = molecular target: T4, mouse VEGFR1 (soluble antigen of the KinExA and SPR affinity assays) (mouse, UniProt P35969 23-759, limits assumed); assay: SPR
T4 sequence (looked up): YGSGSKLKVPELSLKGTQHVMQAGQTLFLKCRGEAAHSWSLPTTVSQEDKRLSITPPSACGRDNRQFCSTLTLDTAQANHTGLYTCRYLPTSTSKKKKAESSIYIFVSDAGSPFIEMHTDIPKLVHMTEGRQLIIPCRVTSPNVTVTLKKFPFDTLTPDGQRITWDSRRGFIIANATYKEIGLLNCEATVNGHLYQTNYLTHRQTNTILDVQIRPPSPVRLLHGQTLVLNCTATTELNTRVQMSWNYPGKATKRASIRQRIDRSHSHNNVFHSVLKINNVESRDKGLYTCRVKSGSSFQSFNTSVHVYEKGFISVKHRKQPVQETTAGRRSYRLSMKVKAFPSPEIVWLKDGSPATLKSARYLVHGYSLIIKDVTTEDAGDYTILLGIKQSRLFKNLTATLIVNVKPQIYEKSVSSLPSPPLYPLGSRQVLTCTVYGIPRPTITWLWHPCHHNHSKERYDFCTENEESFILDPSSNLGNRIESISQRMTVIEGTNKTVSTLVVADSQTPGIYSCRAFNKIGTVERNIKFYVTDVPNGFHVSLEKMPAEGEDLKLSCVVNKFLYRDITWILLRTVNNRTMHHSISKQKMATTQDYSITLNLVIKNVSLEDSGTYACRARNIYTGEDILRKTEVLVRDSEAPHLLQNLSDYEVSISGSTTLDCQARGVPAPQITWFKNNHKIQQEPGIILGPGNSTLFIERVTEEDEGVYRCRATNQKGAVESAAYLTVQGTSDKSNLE

[6] = molecular target: T3, cynomolgus monkey VEGFR1, …; assay: flow cytometry, 10 nM antibody, HEK cells over-expressing cyno VEGFR1
Experimental: Parental CHO-K1 cells, CHO-K1 cells stably expressing human VEGFR1, Ba/F3 parental, and Ba/F3 cells stably expressing murine VEGFR1 were stained for 10 minutes at 4° C. with either no stain, CSFE, CTV, or CTV+CSFE, respectively. Cells were subsequently washed with media containing heat inactivated FBS, collected by centrifugation, combined, resuspended in stain buffer, and plated (95 μL/well; 200,000 of each cell type per well). Antibody samples were added ([…]) to a final concentration of 10 nM and incubated for 60 min at 4° C. protected from light. Cells were washed twice with 150 μL/well stain buffer. AlexaFluor647-conjugated anti-human IgG1 secondary antibody was added (100 μL/well) and incubated for 30 minutes at 4° C. protected from light. Cells were washed twice with 150 μL of stain buffer, ultimately resuspended in 30 μL of running buffer and read on an iQue flow cytometer. This single concentration assay was used as a quick confirmation of binding to human and mouse VEGFR1 on cells. A similar assay was performed to confirm binding of candidate antibodies to HEK293 cells stably over-expressing cyno VEGFR1 at a single concentration of 10 nM.

T2 sequence (P17948 27-1338 limits assumed): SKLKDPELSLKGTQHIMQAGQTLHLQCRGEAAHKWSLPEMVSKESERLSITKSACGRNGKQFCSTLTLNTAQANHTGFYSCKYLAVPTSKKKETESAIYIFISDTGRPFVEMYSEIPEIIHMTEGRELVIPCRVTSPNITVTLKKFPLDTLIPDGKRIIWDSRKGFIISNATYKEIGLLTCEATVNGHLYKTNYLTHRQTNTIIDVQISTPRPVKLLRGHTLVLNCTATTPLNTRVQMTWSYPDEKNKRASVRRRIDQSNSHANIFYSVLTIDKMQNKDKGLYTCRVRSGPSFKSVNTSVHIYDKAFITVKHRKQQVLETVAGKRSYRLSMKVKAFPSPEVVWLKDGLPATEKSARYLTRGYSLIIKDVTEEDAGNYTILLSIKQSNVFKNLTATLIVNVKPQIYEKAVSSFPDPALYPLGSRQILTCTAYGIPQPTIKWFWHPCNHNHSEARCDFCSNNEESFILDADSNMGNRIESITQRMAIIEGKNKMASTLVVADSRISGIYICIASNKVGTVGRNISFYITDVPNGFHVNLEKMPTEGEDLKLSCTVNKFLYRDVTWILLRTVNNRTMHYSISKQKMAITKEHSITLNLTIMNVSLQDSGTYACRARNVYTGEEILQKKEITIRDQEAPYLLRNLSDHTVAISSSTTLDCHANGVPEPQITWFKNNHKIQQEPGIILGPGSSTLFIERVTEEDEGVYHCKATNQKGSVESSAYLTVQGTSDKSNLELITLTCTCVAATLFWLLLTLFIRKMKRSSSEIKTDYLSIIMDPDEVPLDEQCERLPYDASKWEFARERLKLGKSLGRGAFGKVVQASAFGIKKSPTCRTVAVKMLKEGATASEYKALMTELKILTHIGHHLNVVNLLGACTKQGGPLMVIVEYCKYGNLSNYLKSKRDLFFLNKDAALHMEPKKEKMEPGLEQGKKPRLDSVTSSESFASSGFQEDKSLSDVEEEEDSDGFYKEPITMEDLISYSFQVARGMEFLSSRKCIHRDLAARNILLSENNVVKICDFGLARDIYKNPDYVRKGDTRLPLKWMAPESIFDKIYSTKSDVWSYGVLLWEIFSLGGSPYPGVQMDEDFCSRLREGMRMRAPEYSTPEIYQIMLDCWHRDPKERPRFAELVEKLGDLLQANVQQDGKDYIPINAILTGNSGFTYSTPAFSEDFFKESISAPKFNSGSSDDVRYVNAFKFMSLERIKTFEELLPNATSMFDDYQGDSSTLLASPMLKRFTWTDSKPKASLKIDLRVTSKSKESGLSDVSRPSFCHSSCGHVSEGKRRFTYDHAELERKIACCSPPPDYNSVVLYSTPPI
T1 sequence (P17948 27-687 limits assumed): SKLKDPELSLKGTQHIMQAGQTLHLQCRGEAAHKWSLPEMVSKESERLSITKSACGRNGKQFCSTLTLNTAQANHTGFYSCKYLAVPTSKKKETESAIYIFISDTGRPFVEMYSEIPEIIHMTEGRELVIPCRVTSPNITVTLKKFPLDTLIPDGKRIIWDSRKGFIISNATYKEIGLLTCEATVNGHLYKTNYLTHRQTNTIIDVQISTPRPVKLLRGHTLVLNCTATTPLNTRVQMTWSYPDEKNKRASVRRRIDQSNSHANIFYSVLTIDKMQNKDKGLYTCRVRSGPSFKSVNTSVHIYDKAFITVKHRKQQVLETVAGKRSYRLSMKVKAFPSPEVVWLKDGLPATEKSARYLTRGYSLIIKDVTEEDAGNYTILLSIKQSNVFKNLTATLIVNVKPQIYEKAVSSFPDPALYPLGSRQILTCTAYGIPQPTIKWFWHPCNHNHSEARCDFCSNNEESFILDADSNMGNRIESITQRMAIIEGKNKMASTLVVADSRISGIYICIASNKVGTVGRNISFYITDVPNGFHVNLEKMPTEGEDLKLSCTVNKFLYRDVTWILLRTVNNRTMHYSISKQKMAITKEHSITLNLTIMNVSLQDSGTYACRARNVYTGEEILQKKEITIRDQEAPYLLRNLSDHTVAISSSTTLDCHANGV

Binder	IC50 [1] [nM]	Max % Inh. [1] [%]	EC50 [2] [nM]	IC50 [3] [nM]	IC50 [4] [nM]	Max % Inh. [4] [%]	Kd [5]	Geomean over-expressing/Geomean parental (Fold Signal/Background) [6] [fold]
VGFB82 (antibody, human IgG1, lambda, L234A L235A, V domains shown, human IgG1 (L234A/L235A/D265S)) VH: EVQLLESGGGLVQPGGSLRLSCEASGFDFSTYAMNWVRQAPGKGLEWVATINSEGTITSHAPAVKGRFTISRDNSKNTAYVQMNSLRAEDSAVYYCSSTTGTTHGMDVWGRGTTVTVSS VL: not shown	0.183	100	0.136	0.231	0.091	100	0.01 nM	3.3
VGFB71 (antibody, human IgG1, lambda, L234A L235A, V domains shown, human IgG1 (L234A/L235A/D265S)) VH: EVQLLESGGGLVQPGGSLRLSCEASGFIFRDYNMNWVRQAPGKGLEWVSIITNDGSSTAYSDSVKGRFTISRDNSKNSLYLQMNSLRAEDTAIYYCVKVYYGMDDWGQGTTVTVSS VL: not shown	–	–	0.11	0.0957	–	–	–	3.8
VGFB78 (antibody, human IgG1, lambda, L234A L235A, V domains shown, human IgG1 (L234A/L235A/D265S)) VH: EVQLLESGGGLVQPGGSLRLSCAASSFTFYNYDMTWVRQAPGKGLEWVAGIGTSGTDMYYADSVKGRFTISRDNSKNTLYLQMNSLRAEDTAIYYCAKDYYYYGMDVWGLGTTVTVSS VL: not shown	0.335	100	0.473	0.815	0.177	100	0.004 nM and < 0.006 nM	4.46
VGFB54 (antibody, human IgG1, lambda, L234A L235A, V domains shown, human IgG1 (L234A/L235A/D265S), lambda, 2H:2L; from OmniChicken) VH: EVQLLESGGGSVQPGGSLRLSCTASGFNFEDYGMNWVRQAPGKGLDWVSSINRNGDISTYHVDSVKGRFTISRDNSKNTLYLQMNSLRAEDTAIYYCTKNHDYHGMDVWGQGTTVTVSS VL: not shown	0.159	100	0.101	0.0876	0.078	100	5.3 nM	4.4
